From patent US20220112288A1 (published 2022) come the findings set out here.

B1: 75110_08F20A (antibody, V domains shown)
VH: QVQLQESGPGLVKPSETLSLTCSVSGGSISTYYWSWIRQPAGKGLEWIGRICTTENTNYNPSLKSRVTMSIDSSKNQFSLKLSSVTAADTAVYYCARDLERLNYYGMDVWGQGATVTVSS
VL: DIQMTQSPSSLSASVGDRVTITCQASQDISKYLNWYQQKPGIAPKLLIYDASNLETGVPSRFSGSGSGTDFTFTISSLQPEDFATYYCQQYDSLPITFGQGTRLEIK
B2: 75110_08G08A (antibody, V domains shown)
VH: QVQLQESGPGLVKPSETLSLTCSVSGGSISTYYWSWIRQPAGKGLEWIGRICTTENTNYNPSLKSRVTMSIDSSKNQFSLKLSSVTAADTAVYYCARDLERLNYYGMDVWGQGATVTVSS
VL: DIQMTQSPSSLSASVGDRVTITCQASQDISNYLNWYQQKPGIAPKLLIYDASNLETGVPSRFSGSGSGTDFTFTISSLQPEDIATYYCQQYDSLPITFGQGTRLEIK
B3: 75110_07J02A (antibody, V domains shown)
VH: EVQLVESGGGLVQPGGSLRLSCAASGFTFSSYWMSWVRQAPGKGLEWVANIKEDGSEKYYVDSVKGRFTISRDNAKNSLYLQMNSLRAEDTAVYYCARDGSYSGYGMDVWGQGTTVTVSS
VL: AIQMTQSPSSLSASVGDRVTITCRASQGIRNDLGWYQQKPGKAPKLLIYAASSLQSGVPSRFSGRGSGTDFALTISSLQPEDFATYYCLLDYNYPYTFGQGTRLEIK
B4: 75110_10K21A (antibody, V domains shown)
VH: EVQLVESGGGLVQPGGSLRLSCAASGFTFSSYWMTWVRQAPGKGLEWVANIKQDGSEKYYVDSVKGRFTISRDNAKNSLYLQMNSLRAEDTAVYYCVRDRYDALDIWGQGTMVTVSS
VL: AIQMTQSPSSLSASVGDRVTITCRASQGIRNDLNWYQQKPGKAPKLLIYAASSLQSGVPSRFSGSGSGTDFTLTISSLQAEDFATYYCLKDYNYPYTFGQGTKLEIK
B5: 75110_08A13A (antibody, V domains shown)
VH: EVQLVESGGGLVQPGGSLRLSCAASGFIFSSYWMSWVRQAPGKGLEWVANIKQDGSEKYYMDSVKGRFTISRDNAKNSLYLQMNSLRAEDTAVYYCARDNSYYYYGMDVWGQGTTVTVSS
VL: AIQMTQSPSSLSASVGDRVTITCRASQGIRDDLGWYQQKPGKAPKLLIFAASSLQSGVPSSFSGSGSGTDFTLTISSLQPEDFATYYCLHHYNYPYTFGQGTKLEIK
B6: 75110_07J24A (antibody, V domains shown)
VH: QAQLQESGPGLVKPSETLSLTCTVSGGSISSYYYNWIRQPAGKGLEWIGRIYTSGRTDYNPSLKSRVTMSADTSKNQFSLKLSSVTAADTAVYYCARDEGPTDAFDIWGQGTMVTVSS
VL: DIVMTQTPLSLPVTPGEPASISCRSSQSLLDSDDGNTYLDWYLQKPGQSPHLLIYTLSYRASGVPDRFSGSGSGSDFTLKISRVEAEDVGVYYCMQRIEFPFTFGPGTKVDIK
B7: 75110_07N04A (antibody, V domains shown)
VH: QVQLQESGPGLVKPSETLSLTCSVSGVSSTSFYWSWIRQPAGKGLDWIGRIYTSGSTNYNPSLKSRVTMSVDTSKNQFSLKLSSVTAADTAVYYCARDPGYSDAFAIWGQGTMVTVSS
VL: not shown
B8: 75110_09G15A (antibody, V domains shown)
VH: EVQLVESGGGLVQPGGSLRLSCAASGFTFSDYWMSWVRQAPGKGLEWVANINQDGSEKYSVDSVKGRFTISRDNAKNSLYLQMNSLRAEDTAIFYCAREGGQWLALDYWGQGTLVTVSS
VL: DIQMTQSPSSVSASVGDRVTITCRASQGISSWLAWYQQKPGKAPKLLIYGASSLQSGVPSRFSGSGSGTDFTLTINSLQPEDFTTYYCQQANIFPWTFGQGTKVEIK
B9: 75110_07H07A (antibody, V domains shown)
VH: EVQVVESGGGLVQPGGSLRLSCAASGFTFSSYWMSWVRQAPGKGLEWVANIKEEGSEKYYVDSVKGRFTISRDNAKNSLYLQMNSLRAEDTAVYYCVREGGQWLALDYWGQGTLVTVSS
VL: DIQMTQSPSSVSGSVGDRVTITCRASQGISSWLAWYQQKPGKAPKLLIFGASSLQSGVPSRFSGSGSGTDFTLTISSLQPEDFATYYCQQANSFPWTFGQGTKVQIK
B10: 75110_01N04A (antibody, V domains shown)
VH: EVQLVESGGGLVQPGGSLRLSCAASGFTFSNYDMHWVRQATGKGLEWVSTIGTAGDTYYPGSVKGRFTISRENAKNSLYLQMNSLRAGDTAVYYCARGGDFYYGLDVWGQGTTVTVSS
VL: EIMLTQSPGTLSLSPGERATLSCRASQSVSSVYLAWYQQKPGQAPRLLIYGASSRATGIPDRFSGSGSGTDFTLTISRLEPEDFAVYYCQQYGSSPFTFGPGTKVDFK
notes: Tested as clonal hybridoma supernatant (AlivaMab Mouse Kappa; anti-mouse Fc detection); also called Sib1.13
B11: 75110_01G11A (antibody, V domains shown)
VH: EVQLVESGGGLVQPGGSLRLSCAASGFTFSSYDMHWVRQATGKGLEWVSTIGTAGDTYYPGSVKGRFTISRENARNSLFLQMNSLRAGDTAVYYCARGGDYYYGMDVWGQGTTVTVSS
VL: EIVLTQSPGTLSLFPGERATLSCRASQNTYSSYLAWYQQKPGQAPRLLIYGASNRATGIPDRFSGSGSGTDFTLTISRLEPEDFAVYYCQQHGTSPFTFGPGTKVDIK
notes: Tested as clonal hybridoma supernatant (AlivaMab Mouse Kappa; anti-mouse Fc detection); also called Sib1.6
B12: 75110_02I18A (antibody, V domains shown)
VH: EVQVVESGGGLVQPGGSLRLSCAASGFTFSSYDMHWVRQATGKGLEWVSTIGTAGDTYYPGSVKGRFTISRENAKNSLYLQMNSLRAGDTAVYYCARGGYYYYGMDVWGQGTTVTVSS
VL: EIVLTQSPGTLSLSPGERATLSCRASQSVSSSYLAWYQQKPGQSPRLLIHGASSRATGIPDRVSGSGSGTDFTLTISRLEPEDFAVYYCQQYGSSPFTFGPGTKVDIK
notes: Tested as clonal hybridoma supernatant (AlivaMab Mouse Kappa; anti-mouse Fc detection); also called 75110_02118A; Sib1.14
B13: 75110_01E08A (antibody, V domains shown)
VH: EVQLVESGGGLVQPGGSLRLSCAASGFTFNNYDMHWVRQATGKGLEWVSTIGTAGDTYYPASVKGRFTIYRENAKNSLYLQMNSLRAGDTAVYYCARGGDYYYGMDVWGQGTTVTVSS
VL: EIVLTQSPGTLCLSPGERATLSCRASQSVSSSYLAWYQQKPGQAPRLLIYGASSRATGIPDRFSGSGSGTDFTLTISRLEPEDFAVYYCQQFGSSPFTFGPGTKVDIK
notes: Tested as clonal hybridoma supernatant (AlivaMab Mouse Kappa; anti-mouse Fc detection); also called Sib1.11
B14: 75110_01K10A (antibody, V domains shown)
VH: EVQLVESGGALVQPGGSLRLSCAASGFTFRNYDMHWVRQATGKGLEWVSTIGTAGDTYYPGSVKGRFTISRENAKNSLYLQMNSLRAGDTAVYYCARGGDYYYGMDVWGQGTTVTVSS
VL: EIVLTQSPDTLSLSPGERATLSCRASQSLSSVYLAWYQQKPGQAPRLLIYGASSRATGIPDRFSGTGSGTDFTLTISRLEPEDFAVYYCQQYGSSPFTFGPGTKVDIK
notes: Tested as clonal hybridoma supernatant (AlivaMab Mouse Kappa; anti-mouse Fc detection); also called Sib1.3
B15: 75110_01D24A (antibody, V domains shown)
VH: QVQLQQWGAGLLKPSETLSLTCAVYGGSFSGYYWSWIRQPPGKGLEWIGEINHSGSTNYNPSLKSRVTISVDTSENQFSLKLNSVTAADTAVYYCARLVNWFDPWGQGTLVTVSS
VL: EIQMTQSPSSVSASVGDRVTITCRASQDISNWLAWYQQKPGKAPNLLIFAASSLQTGVPSRFSGSGSGTDFTLTISSLQPDDFATYYCQQANSFPYSFGQGTNLGIK
notes: Tested as clonal hybridoma supernatant (AlivaMab Mouse Kappa; anti-mouse Fc detection)
B16: 75110_01A06A (antibody, V domains shown)
VH: EVQLVESGGGLVQPGGSLRLSCAASGFTFSSYWMSWVRQAPGKGLEWVANINEDGNEKYYVDSVKGRLTISRDNAKNSLYLQMNSLRAEDTAVYFCAREGGQWLSLDYWGQGALVTVSS
VL: DIQMTQSPSSVSASVGDRVSITCRASQGISSWLAWYQQKPGKAPKILIYGASSLQSGVPSRFSGSGSGTDFTLTISSLQPEDFATYYCQQANSFPWTFGQGTKVEIK
notes: Tested as clonal hybridoma supernatant of an AlivaMab Mouse Kappa hybridoma (detected with anti-mouse Fc); Kappa light chain; also called Sib2.1
B17: 75110_01C18A (antibody, V domains shown)
VH: EVQLVESGGGLIQPGGSLRLSCAASGFTVSSNYMNWVRQAPGKGLEWVSVIYAGDNTYSADSVKGRFTISRDNSNNTLCLQMNSLRAEDTAVYYCAREGGTTGAFDIWGQGTMVTVSS
VL: DIQMTQSPSSVSASVGDRVTITCRASQGINSWLAWYQQKPGKAPKLLIYAASSLQSGVPSRFSGSGSGTDFTLTISSLQPEDFATYYCQQGNSFPYTFGQGTKLEIK
notes: as for B15
B18: 75110_01H18A (antibody, V domains shown)
VH: QVQLQQWGAGLLKPSETLSLTCAVYGGSFSGYYWSWIRQSPGKGLEWIGEINQSGSTNYNPSLKSRVTISVDTSKNQFSLKLSSVTAADTAVYYCARVINWFDSWGQGTLVTVSS
VL: DIQMTQSPSSVSASVGDRVTITCRASQGISSWLAWYQQKPGKAPKLLIYAASSFQSGVPSRFSGSGSGTDFTLTISSLQTEDFATYYCQQANSFPYTFGQGTRLEIK
notes: Tested as clonal hybridoma supernatant (AlivaMab Mouse Kappa; anti-mouse Fc detection); also called Sib6.1
B19: 75110_02N15A (antibody, V domains shown)
VH: EVQLVESGGGLVQPGGSLRLSCAASGFTFSSYWMSWVRQAPGKGLEWVANINEDGNEKYYVDSVKGRFTISRDNAKNSLFLQMNSLRAEDTAVYFCAREGGQWLALDHWGQGALVTVSS
VL: DIQMTQSPSSVSASVGDRVTITCRASQGISSWLAWYQQKPGKAPKFLISGASSLQSGVPSRFSGSGSGTDFTLTISSLQPEDFATYYCQQANSFPWTFGQGTKVEFK
notes: Tested as clonal hybridoma supernatant (AlivaMab Mouse Kappa; anti-mouse Fc detection); also called Sib2.3
B20: 75110_03D16A (antibody, V domains shown)
VH: EVQLVESGGGLVQPGGSLRLSCAASGFTFSSYWMSWVRQAPGKGLEWVANINQDGGEKYYVDSVKGRFTISRDNAKNSLYLQMNSLRAEDTAVYYCVREGGQWLALDYWGQGTLVTVSS
VL: DIQMTQSPSSVSASVGDRVTITCRASQGISSWLTWYQQKPGKAPKFLIYAASSLQSGVPSRFSGSGFGTDFTLTISSLQPEDFATYYCQQANSFPWTFGQGTKVEIK
notes: Tested as clonal hybridoma supernatant (AlivaMab Mouse Kappa; anti-mouse Fc detection); also called Sib2.5

For the first experiment, the target named is T1, human CD4 on human PBMCs (human, UniProt P01730 26-458).
T1 construct: whole, on cells; also called hCD4
Kind of experiment: FACS, clonal hybridoma supernatant on PBMCs.
For B1, the “% CD4 Stain” value came to 33.2% and the “gMFI of CD4+” value is 307000 gMFI.
The matching figures for B2: 32.2% and 324000 gMFI.
The matching figures for B3: 33.4% and 228000 gMFI.
In the same order, the values of B4 are 29% and 119000 gMFI.
For the molecule B5, the “% CD4 Stain” value was determined as 30.3% and the “gMFI of CD4+” value was determined as 140000 gMFI.
On to B6, for which the “% CD4 Stain” value came out at 28.8% and the “gMFI of CD4+” value came to 28400 gMFI.
The matching figures for B7: 33.8% and 104000 gMFI.
In the same order, the values of B8 are 37.3% and 237000 gMFI.
The matching figures for B9: 37.1% and 204000 gMFI.

A further experiment deals with T2, human CD4 (human, UniProt P01730 26-458).
T2 construct: whole, on cells; also called hCD4
Kind of experiment: FACS, clonal hybridoma supernatant on human PBMCs. (In general: In flow cytometry, cells or beads pass a laser one at a time.)
Take B10: the “% CD4 Stain” value came to 37.2% and the “gMFI of CD4+” value stood at 205000 gMFI.
With B11, the “% CD4 Stain” value stood at 39% and the “gMFI of CD4+” value is 164000 gMFI.
For B12, the “% CD4 Stain” value was determined as 40.5% and the “gMFI of CD4+” value was 162000 gMFI.
In the same order, the values of B13 are 36.5% and 113000 gMFI.
In the same order, the values of B14 are 38% and 191000 gMFI.
As for B15, the “% CD4 Stain” value was determined as 32.9% and the “gMFI of CD4+” value worked out at 134000 gMFI.
In the same order, the values of B16 are 33.7% and 115000 gMFI.
In the same order, the values of B17 are 34.1% and 205000 gMFI.
The matching figures for B18: 48.8% and 101000 gMFI.
Take B19: the “% CD4 Stain” value turned out to be 39% and the “gMFI of CD4+” value came to 253000 gMFI.
The matching figures for B20: 35.6% and 207000 gMFI.
